# What was measured:
# [1] = target: full-length H1N1 A/Puerto Rico/8/34 recombinant HA (rHA) (influenza A virus H1N1 A/Puerto Rico/8/34) (UniProt P03452)
# [2] = target: H1HA10 (influenza A virus H1N1 A/Puerto Rico/8/34) (UniProt A4GCI6)
Substance,Kd [1] [nM],koff [1] [s⁻¹],kon [1] [M⁻¹ s⁻¹],Kd [2] [nM],koff [2] [s⁻¹],kon [2] [M⁻¹ s⁻¹]
F10-scFv,2.9,0.00121,415000,–,–,–
CR6261 IgG (antibody),8.9,0.00258,289000,315,0.00785,24900
FI6v3-scFv,8.8,0.00216,245000,–,–,–

# Reference: patent US20170204142A1
